In PMC10716038, “Talin and kindlin use integrin tail allostery and direct binding to activate integrins” (Nature Structural & Molecular Biology, 2023):
“And” between values parts separate entries of the source, which are not always exact repeats. Equal values may be shown once. No end group written: not given here.

Key:
[1] = biological target: T1, F3 domain of TLN2 (TLN2-F3) (UniProt Q71LX4 311-408); assay: MST
T1 chain: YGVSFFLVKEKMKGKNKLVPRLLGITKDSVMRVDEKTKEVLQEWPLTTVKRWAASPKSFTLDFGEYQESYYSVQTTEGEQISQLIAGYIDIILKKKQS

[2] = biological target: T2, KIND2 lacking the flexible loop in F1 and the PH domain (ΔKIND2); assay: MST
T2 chain: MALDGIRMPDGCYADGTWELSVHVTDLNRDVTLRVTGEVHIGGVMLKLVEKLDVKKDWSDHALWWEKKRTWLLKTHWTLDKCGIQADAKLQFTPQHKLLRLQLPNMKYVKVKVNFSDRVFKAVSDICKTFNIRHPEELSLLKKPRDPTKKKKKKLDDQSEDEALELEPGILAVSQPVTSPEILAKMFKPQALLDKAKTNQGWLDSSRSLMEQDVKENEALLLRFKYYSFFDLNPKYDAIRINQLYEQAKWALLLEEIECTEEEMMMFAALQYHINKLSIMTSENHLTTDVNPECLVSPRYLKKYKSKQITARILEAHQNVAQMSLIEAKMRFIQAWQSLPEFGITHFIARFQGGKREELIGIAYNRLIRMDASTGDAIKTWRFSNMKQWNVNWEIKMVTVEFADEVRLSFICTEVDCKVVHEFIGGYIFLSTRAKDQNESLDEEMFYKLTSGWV

[3] = biological target: T3, F3 domain of TLN1 (TLN1-F3) (UniProt P26039 305-405); assay: MST
T3 chain: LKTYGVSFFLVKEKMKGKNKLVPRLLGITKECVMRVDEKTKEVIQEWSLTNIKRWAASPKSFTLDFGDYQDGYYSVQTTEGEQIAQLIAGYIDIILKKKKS

[4] = biological target: T4, talin-1 head domain (THD1) (UniProt P26039 1-405); assay: MST; ATTO 488-labelled β-CT peptide (50–200 nM) held constant, one unlabelled protein titrated; 20 mM Tris pH 7.5, 200 mM NaCl, 1 mM TCEP, 0.05% Tween-20; apparent affinities (near-saturation only); details: both partners purified
T4 construct: talin-1 (TLN1) head domain (F0-F3), residues 1-405; In FC-RDA a copy labelled with ATTO 565 (565–THD1) was the reporter; also called 565–THD1; source: E. coli (DE3) Rosetta 2, purified (IMAC, SEC); not shown: His10, N-terminal, cleaved; SUMO, N-terminal, cleaved

[5] = biological target: T5, talin-2 head domain (THD2) (UniProt Q71LX4 1-408); assay: as above; details: both partners purified
T5 construct: talin-2 (TLN2) head domain, residues 1-408; source: E. coli (DE3) Rosetta 2, purified (IMAC, SEC); not shown: His10, N-terminal, cleaved; SUMO, N-terminal, cleaved

THD1^K402E [6] = biological target: T6, THD1^K402E (UniProt P26039 1-405, K402E); assay: as above; details: both partners purified
T6 construct: talin-1 (TLN1) head domain, residues 1-405, with K402E; In FC-RDA a copy labelled with ATTO 565 was the reporter; also called 565–THD1^K402E; source: E. coli (DE3) Rosetta 2, purified (IMAC, SEC); not shown: His10, N-terminal, cleaved; SUMO, N-terminal, cleaved

kindlin-2 (KIND2) [7] = biological target: T7, kindlin-2 (KIND2) (UniProt Q8CIB5 1-680); assay: as above; details: both partners purified
T7 construct: kindlin-2 (KIND2) without the deletions of ΔKIND2; In FC-RDA a copy labelled with Alexa 647 (647–KIND2) was the reporter; also called 647–KIND2; source: E. coli Rosetta, purified (IMAC, SEC); not shown: His10, N-terminal, cleaved; SUMO, N-terminal, cleaved
T7 sequence (looked up): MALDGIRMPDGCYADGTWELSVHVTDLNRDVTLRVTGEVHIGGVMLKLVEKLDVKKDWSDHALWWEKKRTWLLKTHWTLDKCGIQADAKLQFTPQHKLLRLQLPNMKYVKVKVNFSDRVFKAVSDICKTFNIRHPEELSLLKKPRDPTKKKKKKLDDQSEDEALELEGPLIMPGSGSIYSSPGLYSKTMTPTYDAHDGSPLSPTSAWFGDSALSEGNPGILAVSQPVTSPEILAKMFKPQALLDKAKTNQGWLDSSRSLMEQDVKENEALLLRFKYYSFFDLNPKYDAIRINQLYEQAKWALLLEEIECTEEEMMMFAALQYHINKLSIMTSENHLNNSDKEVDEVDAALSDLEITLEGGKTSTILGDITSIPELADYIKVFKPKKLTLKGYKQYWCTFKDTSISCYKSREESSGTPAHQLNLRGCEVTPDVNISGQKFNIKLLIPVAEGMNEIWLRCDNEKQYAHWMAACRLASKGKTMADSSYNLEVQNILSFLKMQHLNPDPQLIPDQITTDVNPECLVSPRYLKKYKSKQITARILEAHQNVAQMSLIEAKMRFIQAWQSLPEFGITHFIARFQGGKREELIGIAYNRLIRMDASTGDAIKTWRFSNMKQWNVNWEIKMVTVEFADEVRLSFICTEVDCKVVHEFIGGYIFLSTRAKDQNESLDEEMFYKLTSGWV

KIND2^Y13A [8] = biological target: T8, KIND2^Y13A (UniProt Q8CIB5 1-680, Y13A); assay: as above; details: both partners purified
T8 construct: kindlin-2 (KIND2) with Y13A; In FC-RDA a copy labelled with Alexa 647 was the reporter; also called 647–KIND2^Y13A; source: E. coli Rosetta, purified (IMAC, SEC); not shown: His10, N-terminal, cleaved; SUMO, N-terminal, cleaved
T8 sequence (looked up): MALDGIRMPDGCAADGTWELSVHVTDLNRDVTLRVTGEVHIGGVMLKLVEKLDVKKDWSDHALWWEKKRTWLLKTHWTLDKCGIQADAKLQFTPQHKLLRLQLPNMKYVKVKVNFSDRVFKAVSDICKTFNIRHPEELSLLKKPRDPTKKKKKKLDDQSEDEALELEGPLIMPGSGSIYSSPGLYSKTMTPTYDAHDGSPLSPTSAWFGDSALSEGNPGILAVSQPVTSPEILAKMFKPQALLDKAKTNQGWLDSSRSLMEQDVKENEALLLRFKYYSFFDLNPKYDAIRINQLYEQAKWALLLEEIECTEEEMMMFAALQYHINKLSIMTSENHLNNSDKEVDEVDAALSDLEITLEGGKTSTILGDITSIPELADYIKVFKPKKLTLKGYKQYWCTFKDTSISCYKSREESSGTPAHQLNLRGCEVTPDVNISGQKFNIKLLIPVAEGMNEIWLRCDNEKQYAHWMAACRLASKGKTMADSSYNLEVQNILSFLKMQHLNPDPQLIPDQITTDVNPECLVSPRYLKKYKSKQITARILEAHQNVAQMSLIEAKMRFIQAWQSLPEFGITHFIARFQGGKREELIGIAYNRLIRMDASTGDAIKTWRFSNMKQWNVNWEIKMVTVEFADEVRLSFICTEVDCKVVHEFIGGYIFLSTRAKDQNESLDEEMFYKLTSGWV

[9] = biological target: T4, talin-1 head domain (THD1); assay: flow cytometry-based reporter-displacement assay (FC-RDA) on beads; biotinylated TM–CT in nanodiscs (10% PIP2 or PIP3, 90% DMPC) on streptavidin Dynabeads; reporters 100 nM 565–THD1 or 50 nM 647–KIND2; unlabelled THD1 or KIND2 titrated; 20 mM Tris pH 7.5, 200 mM NaCl, 10 min at room temperature; the lipids add to the binding; details: both partners purified
THD1^K402E [10] = biological target: T6, THD1^K402E; assay: as above; details: both partners purified
kindlin-2 (KIND2) [11] = biological target: T7, kindlin-2 (KIND2); assay: as above; details: both partners purified
KIND2^Y13A [12] = biological target: T8, KIND2^Y13A; assay: as above; details: both partners purified
TLN1-F3^K402E = biological target: T9, TLN1-F3^K402E (UniProt P26039 305-405, K402E); assay: NMR titration; isotope-labelled β1-CT observed; TLN1-F3 and ΔKIND2 (wild type or K402E / Y13A) added together, ternary complex; 20 mM Tris, 200 mM NaCl, 1 mM DTT, pH 7.5, 298 K; details: both partners purified
T9 construct: source: E. coli (DE3) Rosetta 2, purified (IMAC, SEC); not shown: His10, N-terminal, cleaved; SUMO, N-terminal, cleaved

[13] = biological target: T10, F3 domain of TLN1 (TLN1-F3) (UniProt P26039 305-405); assay: NMR titration; isotope-labelled β1-CT observed (1H-15N HSQC, 1H-13C methyl correlations); unlabelled TLN1-F3 or ΔKIND2 added alone at increasing stoichiometries; 20 mM Tris, 200 mM NaCl, 1 mM DTT, pH 7.5, 298 K; details: both partners purified
T10 construct: Used unlabelled, 15N-labelled or partially deuterated in NMR; also called T1-F3; source: E. coli (DE3) Rosetta 2, purified (IMAC, SEC); not shown: His10, N-terminal, cleaved; SUMO, N-terminal, cleaved

T6 sequence (P26039 1-405 K402E): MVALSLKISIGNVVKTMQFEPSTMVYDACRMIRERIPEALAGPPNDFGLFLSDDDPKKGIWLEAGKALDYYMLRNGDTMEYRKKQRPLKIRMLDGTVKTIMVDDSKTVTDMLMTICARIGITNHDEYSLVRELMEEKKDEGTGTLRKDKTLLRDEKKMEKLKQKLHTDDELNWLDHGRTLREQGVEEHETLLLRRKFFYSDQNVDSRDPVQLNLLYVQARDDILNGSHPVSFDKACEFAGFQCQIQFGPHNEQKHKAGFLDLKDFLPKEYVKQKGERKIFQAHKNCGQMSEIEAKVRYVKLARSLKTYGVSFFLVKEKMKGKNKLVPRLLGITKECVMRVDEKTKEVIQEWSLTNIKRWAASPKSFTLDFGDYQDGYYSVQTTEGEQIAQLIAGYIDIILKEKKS

B1: ATTO 488-labelled β3-CT (488–β3-CT) (peptide, UniProt O54890 741-787, looked up)
peptide: {ATTO 488}-KLLITIHDRKEFAKFEEERARAKWDTANNPLYKEATSTFTNITYRGT
notes: integrin β3 cytoplasmic tail; source: synthetic peptide (MPIB Core Facility)
Kd [1]: 98 µM | Kd [2]: 6.8 µM | Kd [3]: 106 µM | Kd [4]: 108 µM and 105 µM | Kd [5]: 39 µM | Kd (THD1^K402E [6]): 34 µM | Kd (kindlin-2 (KIND2) [7]): 9 µM | Kd (KIND2^Y13A [8]): 9 µM

B2: β3 transmembrane and cytoplasmic tail polypeptide (β3-TM–CT) in nanodiscs (domain or fragment, UniProt O54890 715-787, looked up)
chain: GPDILVVLLSVMGAILLIGLATLLIWKLLITIHDRKEFAKFEEERARAKWDTANNPLYKEATSTFTNITYRGT
modifications: biotin (biotin-maleimide)
notes: integrin β3 transmembrane helix and cytoplasmic tail, residues 715-787; Embedded in nanodiscs of 10% PIP2 or PIP3 and 90% DMPC; held on streptavidin beads by the biotin; source: E. coli BL21 (DE3) Rosetta 2, inclusion bodies, purified (IMAC, cation exchange), put into MSP2N2 nanodiscs
binding result [9]: binds | binding result (THD1^K402E [10]): binds | binding result (kindlin-2 (KIND2) [11]): binds | binding result (KIND2^Y13A [12]): binds

B3: integrin β1A cytoplasmic tail (β1-CT), recombinant (peptide, UniProt P05556-1 758-798, looked up)
chain: HDRREFAKFEKEKMNAKWDTGENPIYKSAVTTVVNPKYEGK
notes: integrin β1, splice isoform A, cytoplasmic tail, residues 758-798; DNA synthesised; 15N-, 13C,15N- or 2H,13C,15N-labelled when observed by NMR; also called β1A-CT; integrin-β1-CT; source: E. coli (DE3) Rosetta 2 in M9 medium, purified (IMAC, cation exchange); not shown: His10, N-terminal, cleaved; SUMO, N-terminal, cleaved
binding result (TLN1-F3^K402E): binds | binding result [13]: binds
